{"source": "the DeepSol protein solubility set", "data": [{"assay": "soluble on expression in E. coli; label from the status in PepcDB or PDB records", "values": [{"sequence": "MAYSYTEKKRIRKDFSKLPDVMDVPYLLAIQLDSYREFLQAGATKEQFRDVGLHAAFKSVFPIISYSGNAALEYVGYRLGEPAFDVKECVLRGVTFAVPLRVKVRLIIFDRESSNKAIKDIKEQEVYMGEIPLMTENGTFIINGTERVIVSQLHRSPGVFFDHDRGKTHSSGKLLYSARIIPYRGSWLDFEFDPKDCVFVRIDRRRKLPASVLLRALGYSTEEILNAFYATNVFHIKGETLNLELVPQRLRGEVASIDIKDGSGKVIVEQGRRITARHINQLEKAGVSQLEVPFDYLIGRTIAKAIVHPATGEIIAECNTELTLDLLAKVAKAQVVRIETLYTNDIDCGPFISDTLKIDNTSNQLEALVEIYRMMRPGEPPTKEAAETLFGNLFFSAERYDLSAVGRMKFNRRIGRTEIEGPGVLSKEDIIDVLKTLVDIRNGKGIVDDIDHLGNRRVRCVGEMAENQFRVGLVRVERAVKERLSMAESEGLMPQDLINAKPVAAAIKEFFGSSQLSQFMDQNNPLSEITHKRRVSALGPGGLTRERAGFEVRDVHPTHYGRVCPIETPEGPNIGLINSLATYARTNKYGFLESPYRVVKDSLVTDEIVFLSAIEEADHVIAQASATLNEKGQLVDELVAVRHLNEFTVKAPEDVTLMDVSPKQVVSVAASLIPFLEHDDANRALMGSNMQRQAVPTLRADKPLVGTGMERNVARDSGVCVVARRGGVIDSVDASRVVVRVADDEVETGEAGVDIYNLTKYTRSNQNTCINQRPLVSKGDVVARGDILADGPSTDMGELALGQNMRVAFMPWNGFNFEDSICLSERVVQEDRFTTIHIQELTCVARDTKLGPEEITADIPNVGEAALNKLDEAGIVYVGAEVQAGDILVGKVTPKGETQLTPEEKLLRAIFGEKASDVKDTSLRVPTGTKGTVIDVQVFTRDGVERDSRALSIEKMQLDQIRKDLNEEFRIVEGATFERLRAALVGAKAEGGPALKKGTEITDDYLDGLERGQWFKLRMADDALNEQLEKAQAYISDRRQLLDDKFEDKKRKLQQGDDLAPGVLKIVKVYLAIKRRIQPGDKMAGRHGNKGVVSVIMPVEDMPHDANGTPVDIVLNPLGVPSRMNVGQILETHLGLAAKGLGEKINRMLEEQRKVAELRKFLHEIYNEIGGREENLDELGDNEILALAKNLRGGVPMATPVFDGAKEREIKAMLKLADLPESGQMRLFDGRTGNQFERPTTVGYMYMLKLNHLVDDKMHARSTGSYSLVTQQPLGGKAQFGGQRFGEMEVWALEAYGAAYTLQEMLTVKSDDVNGRTKMYKNIVDGDHRMEAGMPESFNVLIKEIRSLG", "soluble on expression in E. coli": "not soluble"}, {"sequence": "SAEKLFTPLKVGAVTAPNRVFMAPLTRLRSIEPGDIPTPLMGEYYRQRASAGLIISEATQISAQAKGYAGAPGLHSPEQIAAWKKITAGVHAEDGRIAVQLWHTGRISHSSIQPGGQAPVSASALNANTRTSLRDENGNAIRVDTTTPRALELDEIPGIVNDFRQAVANAREAGFDLVELHSAHGYLLHQFLSPSSNQRTDQYGGSVENRARLVLEVVDAVCNEWSADRIGIRVSPIGTFQNVDNGPNEEADALYLIEELAKRGIAYLHMSETDLAGGKPYSEAFRQKVRERFHGVIIGAGAYTAEKAEDLIGKGLIDAVAFGRDYIANPDLVARLQKKAELNPQRPESFYGGGAEGYTDYPSL", "soluble on expression in E. coli": "soluble"}, {"sequence": "MGEISLGEVFHLKSGKYLKADERFEDGKFPYYGAGIESTSFVNEPNTKGDTLSMIANGYSIGNIRYHTIPWFNGTGGIAMEALKPNKTYVPFFYCALKYMQKDLKERFKRDESPFISLKLAGEIKVPFVKSFALQRKAGKIIYLLDK", "soluble on expression in E. coli": "not soluble"}, {"sequence": "MSIAQQLMDMGFPADKAEAAAGNNRNLDQALDWIEKDGAGVPMETDAPAQAAPGAADSGAPPVAASFKCDDCGKLLANDDAIMFHASKTKHENFSESSEAIKPLTAEEKAAKVLEIREKIKVHQAKKAKLEAEENREKEKKRREDGKAMISHKEAARDREIREAAQDRRREKNEDEIARKRVLEQIRLDKEARKAKASGQPVPEAKPAPSAAPVAPPKDYSTTTLQFRLLDGQTVRQQFEANEPLAMVRAWVETNHANGVPFTLMTPFPRKVFTEDDMGTPLKVLNLVPSANVILNRAA", "soluble on expression in E. coli": "not soluble"}, {"sequence": "MLPTILALLLAPLATALPPTIIRSPKVTGWGWWSEMESCPPGYFAHGMRIKYERDSGSLDETGLNAIELACKNRAVPSSGDTYIKGAEGVFGGWQAYQYCPQGEYVIGFALQSESWRGGNKDDVAANNFAAYCGRPEAPRRRYSWIQGSVNERGSWTRDQFCPARQIVCGIIVQIEPAQAPHVDDASLDSVGLKCCDF", "soluble on expression in E. coli": "not soluble"}, {"sequence": "ATRMAPVIMVPGSSASQNRFDSLITELGKETPKKHSVLKLTVQTDGTIKYSGSIAANDNEPFIVIGFANNRDGKANIDKQAVWLNTAFKALVKTYHFNHFYALGHSNGGLIWTLFLERYLKESPKVHIDRLMTIASPYNMESTSTTAKTSMFKELYRYRTGLPESLTVYSIAGTENYTSDGTVPYNSVNYGKYIFQDQVKHFTEITVTGANTAHSDLPQNKQIVSLIRQYLLAETMPDKVRQKNAQRVQN", "soluble on expression in E. coli": "soluble"}, {"sequence": "MDDATEQEVFNRMQMTQFEEKRFELVVIRAEDTVVVEPLRQRETCPKCHQILSSELSRLWHQFVHMDAYNGFLDGKFQIQLPDFEFVIPCPFSTCSLLFLDLIDARFHYLLEHQSCQLFCCGVRFSDYKTALEHLQGTGSVETEAWDQQKHFLKPVYICNCCNRTWSSRNEYVAHLHGRDHMCPDPVCKYIFETNEKCIRHFFEQHYKHLFLDSRHLLLNYKYFLRYQEKQEERAYGLYVCTTCQRRFRDNKGFQSHVASQNCEFFDRKFFVQVIACKCGHQFKYCYYQRDVLLRNLPVLREAMEHVEREAPFNNMPEDVCNIYRSIIVVIIDVNQRLINEKFTNYQRTSPLKHSSFTPRQMAKLLLEVVDYFWKIM", "soluble on expression in E. coli": "not soluble"}, {"sequence": "MEAKKSNKIREIVKLQQLLKKWRKQAIASKAANNNNEDNNSSGGGSKSIKFLKRTLSFTDVTAVPKGYLAVSVGLEKKRYTIPTEYLSHQAFYVLLREAEEEFGFQQAGVLRIPCEVSVFESILKIMEEKNEGYLVTPITAKQECKFNAAADDKTSYQHPSDCPKTPSHQPHNSPMCR", "soluble on expression in E. coli": "soluble"}, {"sequence": "ETELAFLYERDIYRLLAECDNSRNPDLGLIVRICLATGARWSEAETLTQSQVMPYKITFTNTKSKKNRTVPISDELFDMLPKKRGRLFNDAYESFENAVLRAEIELPKGQLTHVLRHTFASHFMMNGGNILVLKEILGHSTIEMTMRYAHFAPSHLESAVKFNPLSNPAQ", "soluble on expression in E. coli": "soluble"}, {"sequence": "MGSDKIHHHHHHMALWQYSFRGGDDMKFAHLERLNLTLRALAPVFIGSGEQLGKKEYIFDSPNALIYFPDFPRLVAFLKERSLLAEYEKFLSTPRLKDIRVFLEENGISAADYPSFVRYSIAAGEAAHIENFREVLTFIKDSKGYPYIPGSSLKGAIRTALATYLLKRGDWERDRRNIEGSDSSVPARKYLARESSTVEKKVFYQLDIRNPKDGKEISSPINDLMQGIRISDSAALSFENLTLTGKYDRKPDGTVNLLPIFRECLTPGSEAHLQLTLDLPMLARVGLNAGIIEEALHDFADEHYAHFEQYFAELPEDASVAAKEGVDIFLGGGVGYVSKTLTYNLFPQRENAVSLAAKILTKQFSPKHGHSKDASQYKVSPHILKTTMYAGEYYHMGKCELIITR", "soluble on expression in E. coli": "not soluble"}, {"sequence": "MSRDGQNGTATFYFDEPQALVGEVRQDITGMYLLDDEGELATREVKAKFINGQPAGLEAVYLMRSPEEWDRFMRFMQRYAEANGLGFTEALEHHHHHH", "soluble on expression in E. coli": "not soluble"}, {"sequence": "MPSYKLTYFAVRGLAEPARLLFHLAGVPFEDERLTFGDGSWEKLKDKTPMGQMPVLNVDGFEIPQSAAITRYLARKFGFAGKTPEEEAWVDAVVDQFKDFFGEFRKLIIAQRAGKSVEEIEKLTKEVINPAVSSFFKILNGLLEKSKSGYLIGDSITFADLFIAEDMQSLKNFGFLNATEQPKIAAHLEKVYSHPKLKSYIASRPVTEI", "soluble on expression in E. coli": "not soluble"}, {"sequence": "MKSKFFAQNRERLVNTLPDESITILFAGQAPHMSADAHYKFVPNRNFYYVTGIDEPNVIFMLKKFGNSVEETLFIEKSDPVMEKWVGKTVSNEEAEKISGIKKVIYLDSFEKTMSNIFFTENVKHLYLDLECREWKGTETKTLAFAKHVREQYPHVTIGNVYPNICELRVFKTDEEIEIIKEAIAVTKDGIYNVLKHAKADMMEYELEAQFDFTLKSSGIKHHAFNTILASGKNATVLHYEDNDAQIQNGDLVLLDLGAQKDYYNADISYTFPANGTFSSRQKQIYNIVLNALKETTEIIKPGLKFAALNEHAKKVLAEGCKAVGLIQEDEELSKYYYHGVSHFLGLDTHDVGTYKDRVLEEGMVITIEPGLYIEEESIGIRIEDDILVTKDGHENLSKDIIREVEEIEEFMRENNVNVKQDEVVTK", "soluble on expression in E. coli": "soluble"}, {"sequence": "MTNPMQATRKIISITDQNVVHREDQVAREYPLTIYVNDREFATMVCTQADLEEMVIGFLGSEGLIRFYKQDVASLSIDESRGFAYVSLTKELPTEWQFYSKRMIGSCCGKSRQSFYFHNDAKTAKTSMSRTTMTPEQCFRLMEALQEQSVIFQQTGGVHNAALATPEQMLISRTDIGRHNALDKLYGYCLMNGVPVRDKVLLFSGRISSEVLLKAAKIGVGIMLSKSAPTELALTMAEELNITTAGFIRDGRMNIYTVPERILTPKKEVQLEHHHHHH", "soluble on expression in E. coli": "soluble"}, {"sequence": "MSDNALSPQKNHRRLAETLVDRFAQRMRDGVLVRGEKLPSEIHIMEAEGVSRTVVRDALSRMQAAGLVETRHGVGTFVLDMPPPEGFSVGPATIASVADVLNLLEFRLSLEVEAAGLAAQRRSPEALLELKRAFDALLEGPQKSGTTINADFQFHLKIAKASGNAYLIDIMKHLGTKLIPRTRMNSAYTGQSDRSAYLAGINAEHRQIYNAIAEGNVDAARAAMYLHLNGSRMRLRRTQALYSD", "soluble on expression in E. coli": "not soluble"}, {"sequence": "MIYDVFLNFSGEDVRGTFLNHFFKELERKSIIAFKDNESERSQNLSPELTHAIRESRITVVVFSKNYSSSTWCLNELLQVYECYQSMDLPVIPIFYGLDPSHVRKQTGEFGKNFEKTCRNETEACVYQWRRALCDVSNFLGYHSPNWANEATMIEQVANDVLFKLNLTPSSDFSEFVGIEDHIAAMNSVDKR", "soluble on expression in E. coli": "soluble"}, {"sequence": "MAHHHHHHMATLTEDEIAPSAIAAERERLQEATQHVAELERRLDALQRELEAACTRREQLLLSVQWRELMAAVNADEDVYAVAERMMDAFAAFRESLVEPENYLQEQREEVLKEDDIVPYSDTDDYADFSGVEAVVEELLAAVKEQLESHAAAPPSSFRQTKHSSLRGSFASDERPKHPDGESAEAHKVSADARRQALLKLLVITVLMGRVEQYCRFKSISDASNVPQSEAEEMRDGVASVWQWLFHEQPGVLTAEEGAEWKHIAGAFLGDSYTVAP", "soluble on expression in E. coli": "not soluble"}, {"sequence": "MAKSLLRSGNLDDYQAVGGGGQAVFESALQIRETLRLRKQQAMVDCLAIPQLNDNGDRVDWYSPIEGQAIAWKAADEETRSRALRYLASTFESAAALSRKSLQSGKTALQLFGSLLEKATQFPGENHVFLVNGKPVITFWGFVNLNENTRDDVLDCLRVTEAIPDIPLVEPEPEEKPLVEAAFSQADEPLLTSVIEPPKMPEEPAAPPVIVSEPKPAAPIPVAEAKRARRLPLWSLPVAAVVIAAVATPFFWPSSSVDGASPVRAAPVATAKTDVTPLPELTAHLPLHRAEVTPAPKAAPLPEAPVIIAAIPKDALVMDNTQMKLGTTRFLNGSWRISVDVKDPITGKPPSLRYQIQNNKGIARVVHGDNVVCRAEIFSGLHQTGELMIKSRGNARCTDGSRYPMPEITCKAGVNDVATCTARYGDHAAIPLTFKKIGA", "soluble on expression in E. coli": "not soluble"}, {"sequence": "MSLSFSAKVKGEICRYIDISKEEALAQISAIMKVCGTLAFSGRQISFKMTTENPASARLMFTILKDYFDIHAKLMVKKSNSLKKNNIYMVVVTEEMGVKKLLEITGILREIDGIMSLDYHIDENLVDTEEKKKAYIRGAFIGGGSISNPEKTYHLEFVTHSQEYAEDLGKLINTFGLKAKVIQRKNSYIVYIKEGEQIVDLLNIIGAHTALLELENIRIMKEMRNNVNRLVNCETANLSKTVNAAVRQVESIKLIEREIGLARLPKNLREVAELRLTYPEESLKELGEMLEPPVGKSGVNHRLRKIEKIAEELRTGNEGHHHHHH", "soluble on expression in E. coli": "soluble"}]}]}
